Reference: US20230029835A1 (KEYMED BIOSCIENCES, published 2023)
Like-named read-outs stand apart in the source and are kept apart here.

T1: Cynomolgus macaques TSLP recombinant protein (Cynomolgus macaques, UniProt Q969D9 29-159 (human entry), limits assumed, biotinylated in the blocking assays (sites not given))
T1 construct: also called cyTSLP; biotinylated Cynomolgus macaques TSLP protein
T1 chain: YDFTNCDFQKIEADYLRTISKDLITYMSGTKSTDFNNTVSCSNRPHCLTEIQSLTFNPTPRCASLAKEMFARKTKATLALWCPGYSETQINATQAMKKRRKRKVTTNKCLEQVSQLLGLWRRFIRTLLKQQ


What was measured:
[1] = biological target: T1, Cynomolgus macaques TSLP recombinant …; assay: competition ELISA, biotin-cynomolgus TSLP to coated cynomolgus TSLPR-Fc
Method: Cynomolgus macaques TSLPR recombinant protein was coated onto a 96-well microtiter plate at 1 μg/mL in carbonate buffer overnight at 4° C. The plate was washed three times with PBS and blocked by adding 200 μL/well of PBS containing 2% skim milk for 1 hour. […] The 96-well plate was washed three times with PBS, and 100 μL of the incubated mixture was added to each well and incubated for 1 hour at room temperature. After washing with PBST and PBS three times, respectively, 100 μL of SA-HRP was added to each well and incubated at room temperature for 30 minutes in the dark. After washing with PBST and PBS three times, respectively, 100 μL of TMB substrate was added to well for color development at 37° C. for 10 minutes, the reaction was terminated with 50 μL of 2M sulfuric acid solution per well, and the absorbance was read at a wavelength of 450 nm.

[2] = biological target: T2, human TSLP recombinant protein (human, UniProt Q969D9 29-159, biotinylated in the blocking and cell-binding assays (sites not given)); assay: SPR BIAcore T200, antibody captured on Protein A, human TSLP injected
T2 construct: also called biotinylated human TSLP protein

[3] = biological target: T2, human TSLP recombinant protein; assay: ELISA on coated human TSLP
Method: (§1) The plate was washed three times with PBS and blocked by adding 200 μL/well of PBS containing 2% skim milk for 1 hour. […] After washing with PBST and PBS three times, respectively, 100 μL of TMB substrate was added to each well for color development at 37° C. for 10 minutes, the reaction was terminated with 50 μL of 2M sulfuric acid solution per well, and the absorbance was read at a wavelength of 450 nm.

[4] = biological target: T2, human TSLP recombinant protein; assay: cell-based or functional assay
[5] = biological target: T1, Cynomolgus macaques TSLP recombinant …; assay: ELISA on coated cynomolgus TSLP
Method: as §1

[6] = biological target: T2, human TSLP recombinant protein; assay: competition ELISA, biotin-human TSLP to coated human TSLPR-Fc
Method: (§2) Human TSLPR recombinant protein was coated onto a 96-well microtiter plate at 1 μg/mL in carbonate buffer overnight at 4° C. The plate was washed three times with PBS and blocked by adding 200 μL/well of PBS containing 2% skim milk for 1 hour. […] The 96-well plate was washed three times with PBS, and 100 μL of the incubated mixture was added to each well and incubated for 1 hour at room temperature. After washing with PBST and PBS three times, respectively, 100 μL of SA-HRP was added to each well and incubated at room temperature for 30 minutes in the dark. After washing with PBST and PBS three times, respectively, 100 μL of TMB substrate was added to well for color development at 37° C. for 10 minutes, the reaction was terminated with 50 μL of 2M sulfuric acid solution per well, and the absorbance was read at a wavelength of 450 nm.

[7] = biological target: T2, human TSLP recombinant protein; assay: flow cytometry competition, biotin-human TSLP to Ba/F3-hTSLPR-IL7Rα cells
Method: Ba/F3-hTSLPR-IL7Rα cells were washed three times with PBS, centrifuged at 300 g for 3 minutes, and blocked with 3% BSA/PBS for 30 minutes. The cells were resuspended and added to a 96-well U-plate at 5×10⁴/well.

[8] = biological target: T1, Cynomolgus macaques TSLP recombinant …; assay: competition ELISA, biotin-cynomolgus TSLP to coated cynomolgus TSLPR-Fc
Method: Cynomolgus macaques TSLPR recombinant protein was coated onto a 96-well microtiter plate at 1 g/mL in carbonate buffer overnight at 4° C. The plate was washed three times with PBS and blocked by adding 200 μL/well of PBS containing 2% skim milk for 1 hour. […] The 96-well plate was washed three times with PBS, and 100 μL of the incubated mixture was added to each well and incubated for 1 hour at room temperature. After washing with PBST and PBS three times, respectively, 100 μL of SA-HRP was added to each well and incubated at room temperature for 30 minutes in the dark. After washing with PBST and PBS three times, respectively, 100 μL of TMB substrate was added to well for color development at 37° C. for 10 minutes, the reaction was terminated with 50 μL of 2M sulfuric acid solution per well, and the absorbance was read at a wavelength of 450 nm.

[9] = biological target: T1, Cynomolgus macaques TSLP recombinant …; assay: ELISA on coated cynomolgus TSLP
Method: as §1

[10] = biological target: T2, human TSLP recombinant protein; assay: ELISA on coated human TSLP; remark: listed apart in the source
Method: as §1

[11] = biological target: T2, human TSLP recombinant protein; assay: competition ELISA, biotin-human TSLP to coated human TSLPR-Fc; remark: listed apart in the source
Method: as §2

[12] = biological target: T2, human TSLP recombinant protein; assay: cell-based or functional assay; remark: listed apart in the source
[13] = biological target: T2, human TSLP recombinant protein; assay: cell-based or functional assay; remark: listed apart in the source
[14] = biological target: T2, human TSLP recombinant protein; assay: SPR BIAcore T200, antibody captured on Protein A, human TSLP injected; remark: listed apart in the source
Method: (§3) After each injection cycle, the Protein A chip surface was regenerated with regeneration buffer 10 mM glycine (pH 2.0) at a flow rate of 30 μL/min. The association rate constant (ka) and dissociation rate constant (kd) and equilibrium dissociation constant KD were analyzed by fitting the resulting data to a Langmuir 1:1 kinetics theoretical model using BIAevaluation software.

[15] = biological target: T1, Cynomolgus macaques TSLP recombinant …; assay: SPR BIAcore T200, antibody captured on Protein A, cynomolgus TSLP injected
Method: as §3

Binder | IC50 [1] | Kd [2] | koff [2] | kon [2] | EC50 [3] | Inhibition IC50 of STAT5 reporter gene [4] | EC50 [5] | IC50 [6] | IC50 [7] | IC50 [8] | EC50 [9] | EC50 [10] | IC50 [11] | Inhibition of Cell Proliferation IC50 [12] | STAT5 signal inhibition IC50 [13] | also measured
76A8 chimeric antibody (antibody, V domains shown) VH: QVQLQQSGPQLVRPGASVKISCKASGYSFTSYWMHWVKQRPGQGLEWIGLIDPSDSETGLNQRFKDKATLTVDNPSSTAYMQLSSPTSEDSAVYYCARSLDGYYDYWGQGTTLTVSS VL: DIQMIQSPASLSASVGETVTITCRASGNIHNYLAWYQQKQGKSPQLLVYNAKTLADGVPSRFSGSGSGTQYSLKINSLQPEDFGSYYCQHFWSTPWTFGGGTRLEIK | 730 pM | 26 pM | 8.36e-05 s⁻¹ | 3.22e+06 M⁻¹ s⁻¹ | 260 pM | 9780 pM | 470 pM | 1420 pM |  |  |  |  |  |  |  | 
79D6 chimeric antibody (antibody, V domains shown) VH: QVQLQQSGAELVMPGASVKMSCKASGYTFTGYWMHWVKQRPGQGLEWIGTIDNSDSDTTYNQKFKGKVTLTVDESSSTAYMQLSSLTSEDSAVYYCARSVDGYLDYWGQGTTLTVSS VL: DIQMIQSPASLSASVGETVTITCRASENIYSYLAWYQQIQGKSPQLLVYYAKTLPEGVPSRFSGSGSGTQFSLKINSLQPEDFGSYYCQHHYGTPWTFGGGTKLEIK | 310 pM | 20.4 pM | 8.77e-05 s⁻¹ | 4.31e+06 M⁻¹ s⁻¹ | 580 pM | 9610 pM | 730 pM | 1350 pM |  |  |  |  |  |  |  | 
80B12 chimeric antibody (antibody, V domains shown) VH: QVQLQQSGPQLVRPGASVKISCKASGYSFTTYWMHWVKQRPGQGLEWIGLIDPSDGEAGLNQNFKDKATLTVDISSRTAYMQISSPTSEDSAVYFCARSLDGYYDYWGQGTTLTVSS VL: DIQMTQSPASLSASVGETVTITCRASEDIYSYLAWYQQKQGKSPQLLVYNAKTLAEGVPSRFSGSGSGTQFSLKINSLQPEDFGSYYCQHFWSTPWTFGGGTKLELK | 540 pM | 22.4 pM | 0.000108 s⁻¹ | 4.82e+06 M⁻¹ s⁻¹ | 340 pM | 5790 pM | 550 pM | 2580 pM |  |  |  |  |  |  |  | 
80E11 chimeric antibody (antibody, V domains shown) VH: QVQLQQSGPQLVRPGASVKISCKASGYSFTSYWMHWVKQRPGQGLEWIGVIDPSDSETILNQKFKDKATLTVDKSSSTAYMQFSSPTSEDSAVYYCARSLDGYYDYWGQGTTLTVSS VL: DIQMTQSPASLSASVGETVTITCRAGENIYSYLAWYQQKQGKSPQLLVYNAKTLAEGVPSRFSGSASGTQFSLKINSLQPEDFGSYYCQHFWGTPWAFGGGTRLEIK | 1150 pM | 18.5 pM | 0.000123 s⁻¹ | 6.62e+06 M⁻¹ s⁻¹ | 150 pM | 13600 pM | 570 pM | 1800 pM |  |  |  |  |  |  |  | 
Ab20 (antibody, V domains shown, Humanized; also called h71G4VHv2/h71G4VKv1) VH: QVQLVQSGAEVKKPGSSVKVSCKASGYTFTDYWMHWVRQAPGQGLEWMGTIDNSDSDTTYNQKFQGRVTLTVDTSTSTAYMELSSLRSEDTAVYYCARSVDGYLDYWGQGTLVTVSS VL: DIQMTQSPSSLSASVGDRVTITCRTSENIYSYLAWYQQKPGKAPKLLIYFAKTLTDGVPSRFSGSGSGTDFTLTISSLQPEDFATYYCQHHYGTPWTFGQGTKVEIK |  |  |  |  |  |  |  |  | 330 pM | 1320 pM | 270 pM | 170 pM | 2000 pM | 46200 pM |  | 
Ab24 (antibody, V domains shown, Humanized; also called h39G5VHv5/h71G4VKv1; h39G5VHv5/h71G4VKv1 hIgG1) VH: QVQLVQSGAEVKKPGSSVKVSCKASGYTFTDYWMHWVRQAPGQGLEWMGIIDPSDSDTSLNQKFQGRVTLTVDTSTSTAYMELSSLRSEDTAVYYCARSLDGYYDYWGQGTLVTVSS VL: DIQMTQSPSSLSASVGDRVTITCRTSENIYSYLAWYQQKPGKAPKLLIYFAKTLTDGVPSRFSGSGSGTDFTLTISSLQPEDFATYYCQHHYGTPWTFGQGTKVEIK |  |  |  |  |  |  |  |  | 360 pM | 1630 pM | 1370 pM | 220 pM | 2010 pM | 1040 pM | 150 pM | Kd [14]: 0.0234 pM; koff [14]: 3.99e-08 s⁻¹; kon [14]: 1.7e+06 M⁻¹ s⁻¹; Kd [15]: 0.179 pM; koff [15]: 2.85e-07 s⁻¹; kon [15]: 1.59e+06 M⁻¹ s⁻¹
Ab26 (antibody, V domains shown, Humanized; also called h39G5VHv10/h71G4VKv1; h39G5VHv10/h71G4VKv1 hIgG1) VH: QVQLVQSGAEVKKPGSSVKVSCKASGYTFTDYWMHWVRQAPGQGLEWMGIIDPSDSDTSLNQKFQGRVTITADTSTSTAYMELSSLRSEDTAVYYCARSLDGYYDYWGQGTLVTVSS VL: DIQMTQSPSSLSASVGDRVTITCRTSENIYSYLAWYQQKPGKAPKLLIYFAKTLTDGVPSRFSGSGSGTDFTLTISSLQPEDFATYYCQHHYGTPWTFGQGTKVEIK |  |  |  |  |  |  |  |  | 390 pM | 690 pM | 950 pM | 180 pM | 1660 pM | 1500 pM | 180 pM | Kd [14]: 2.03 pM; koff [14]: 2.79e-06 s⁻¹; kon [14]: 1.37e+06 M⁻¹ s⁻¹; Kd [15]: 0.308 pM; koff [15]: 3.82e-07 s⁻¹; kon [15]: 1.24e+06 M⁻¹ s⁻¹
Ab21 (antibody, V domains shown, Humanized; also called h71G4VHv3/h71G4VKv1) VH: QVQLVQSGAEVKKPGSSVKVSCKASGYTFTDYWMHWVRQAPGQGLEWMGTIDNSDSDTTYNQKFQGRVTMTRDTSTSTVYMELSSLRSEDTAVYYCARSVDGYLDYWGQGTLVTVSS VL: DIQMTQSPSSLSASVGDRVTITCRTSENIYSYLAWYQQKPGKAPKLLIYFAKTLTDGVPSRFSGSGSGTDFTLTISSLQPEDFATYYCQHHYGTPWTFGQGTKVEIK |  |  |  |  |  |  |  |  | 360 pM | 1080 pM | 540 pM | 280 pM | 2180 pM | 178000 pM |  | 
Murine anti-39G5 (mAb39G5) (antibody, V domains shown, also called murine antibody 39G5) VH: QVQLLQSGPQLVRPGASVKISCKASGYSFISYWIHWVKQRPGQGLEWIGIIDPSDSDTSLNQKFKDKATLTVDKSSTTAYIQLSSPTSEDSAVYYCARSLDGYYDYWGQGTTLTVSS VL: DIQMTQSPASLSASVGETVTITCRASENIYSYLAWYQQKQGKSPQLLVYNARTLPEGVPSRFSGSGSGTQFSLKINSLQPEDFGIYYCQHHYTTPWTFGGGTKLEIK |  |  |  |  |  |  |  |  | 360 pM | 1600 pM |  |  | 1950 pM | 58900 pM | 4920 pM | 
Murine anti-71G4 (mAb71G4) (antibody, V domains shown, also called murine antibody 71G4) VH: QVQLQQSGAELVMPGASVKMSCKASGYTFTDYWMHWVKQRPGQGLEWIGTIDNSDSDTTYNQKFKGKVTLTVDESSSTAYMQLSSLTSEDSAVYYCARSVDGYLDYWGQGTTLTVSS VL: EIQMTQSPASLSASVGETVTITCRTSENIYSYLAWYQQKQGKSPQLLVYFAKTLTDGVPSRLSGSGSGTQFSLKINSLQPEDFGSYYCQHHYGTPWTFGGGTKLEIK |  |  |  |  |  |  |  |  | 270 pM | 470 pM |  |  | 1980 pM | 30700 pM | 1140 pM | 
Ab19 (antibody, V domains shown, Humanized; also called h71G4VHv1/h71G4VKv1) VH: QVQLVQSGAEVKKPGSSVKVSCKASGYTFTDYWMHWVRQAPGQGLEWMGTIDNSDSDTTYNPSFQGHVTISADKSISTAYLQWSSLKASDTAMYYCARSVDGYLDYWGQGTLVTVSS VL: DIQMTQSPSSLSASVGDRVTITCRTSENIYSYLAWYQQKPGKAPKLLIYFAKTLTDGVPSRFSGSGSGTDFTLTISSLQPEDFATYYCQHHYGTPWTFGQGTKVEIK |  |  |  |  |  |  |  |  | 450 pM | 1760 pM | 650 pM | 270 pM | 2740 pM |  |  | 
